Here are results for 91 sequences from the supplement of paper PMC9112550, “Optimization of the antimicrobial peptide Bac7 by deep mutational scanning” (BMC Biology, 2022).

This data set concerns Escherichia coli TOP10. Briefly: shrunken log2 fold change of peptide-encoding DNA abundance (4.5 h post-induction vs induction); higher = less antimicrobial activity (less host growth inhibition). The conditions noted are these: time post-induction: 4.5 h; library: site-saturation at positions 5, 18, 19, 20.
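Note: peptides expressed intracellularly from a pBAD plasmid library in pooled LB shake-flask culture, induced with 0.3% L-arabinose, DNA abundance read by NGS, three biological replicates, DESeq2 with apeglm shrinkage.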

As for RRIRIRPPRLPRPRPRPKASPRP, the “shrunken log2 fold change” value was -0.0616.

With RRIRWRPPRLPRPRPRPWLAPRP, the “shrunken log2 fold change” value is -0.168.

With RRIRNRPPRLPRPRPRPTWCPRP, the “shrunken log2 fold change” value was -0.0306.

As to RRIRRRPPRLPRPRPRPFLWPRP, the “shrunken log2 fold change” value came to 0.173.

RRIRDRPPRLPRPRPRPFNFPRP: the “shrunken log2 fold change” value was -0.703.

For RRIRDRPPRLPRPRPRPHMWPRP, the “shrunken log2 fold change” value was found to be 0.0299.

As for RRIRLRPPRLPRPRPRPRFEPRP, the “shrunken log2 fold change” value turned out to be 0.529.

On to RRIRPRPPRLPRPRPRPCTLPRP, for which the “shrunken log2 fold change” value was -0.029.

As to RRIRLRPPRLPRPRPRPHVAPRP, the “shrunken log2 fold change” value was 0.0259.

As to RRIRFRPPRLPRPRPRPYPAPRP, the “shrunken log2 fold change” value was -0.512.

As to RRIRNRPPRLPRPRPRPTQPPRP, the “shrunken log2 fold change” value amounted to 0.6.

With RRIRPRPPRLPRPRPRPGDCPRP, the “shrunken log2 fold change” value worked out at 0.482.

RRIRFRPPRLPRPRPRPGDVPRP: the “shrunken log2 fold change” value was -0.014.

As to RRIRTRPPRLPRPRPRPESGPRP, the “shrunken log2 fold change” value stood at 0.366.

Regarding RRIRLRPPRLPRPRPRPDCRPRP, the “shrunken log2 fold change” value was 0.0593.

Take RRIRTRPPRLPRPRPRPRMAPRP: the “shrunken log2 fold change” value came out at 0.288.

For the sequence RRIRNRPPRLPRPRPRPTCWPRP, the “shrunken log2 fold change” value is 0.696.

RRIRNRPPRLPRPRPRPALFPRP: the “shrunken log2 fold change” value turned out to be 0.177.

Consider RRIRMRPPRLPRPRPRPRGFPRP, for which the “shrunken log2 fold change” value turned out to be 0.045.

As to RRIRLRPPRLPRPRPRPNLQPRP, the “shrunken log2 fold change” value was -0.0904.

For RRIRDRPPRLPRPRPRPGGNPRP, the “shrunken log2 fold change” value is -0.0716.

In the case of RRIRDRPPRLPRPRPRPCDAPRP, the “shrunken log2 fold change” value was -0.0239.

RRIRYRPPRLPRPRPRPTHKPRP: the “shrunken log2 fold change” value was -0.329.

Regarding RRIRQRPPRLPRPRPRPMRWPRP, the “shrunken log2 fold change” value is 0.0431.

As for RRIRRRPPRLPRPRPRPRLCPRP, the “shrunken log2 fold change” value worked out at 0.472.

Regarding RRIRSRPPRLPRPRPRPEAEPRP, the “shrunken log2 fold change” value was determined as 0.841.

As for RRIRDRPPRLPRPRPRPDTFPRP, the “shrunken log2 fold change” value is -0.0268.

RRIRVRPPRLPRPRPRPFVEPRP: the “shrunken log2 fold change” value is -0.361.

RRIRGRPPRLPRPRPRPYDAPRP: the “shrunken log2 fold change” value was -0.317.

As to RRIRKRPPRLPRPRPRPLSAPRP, the “shrunken log2 fold change” value was 0.402.

For the sequence RRIRARPPRLPRPRPRPAQIPRP, the “shrunken log2 fold change” value was -0.0241.

RRIRGRPPRLPRPRPRPDGVPRP: the “shrunken log2 fold change” value worked out at 0.368.

As to RRIRQRPPRLPRPRPRPNWDPRP, the “shrunken log2 fold change” value came out at 0.126.

Turning to RRIRFRPPRLPRPRPRPENRPRP, the “shrunken log2 fold change” value was -0.0215.

In the case of RRIRPRPPRLPRPRPRPFRDPRP, the “shrunken log2 fold change” value is -0.118.

RRIRVRPPRLPRPRPRPQTWPRP: the “shrunken log2 fold change” value was -0.148.

With RRIRGRPPRLPRPRPRPWALPRP, the “shrunken log2 fold change” value was -0.115.

As to RRIRQRPPRLPRPRPRPVQGPRP, the “shrunken log2 fold change” value stood at 0.0162.

Regarding RRIRGRPPRLPRPRPRPAVQPRP, the “shrunken log2 fold change” value turned out to be 0.797.

As for RRIRRRPPRLPRPRPRPWIPPRP, the “shrunken log2 fold change” value was -0.129.

Consider RRIRMRPPRLPRPRPRPIQYPRP, for which the “shrunken log2 fold change” value was determined as 0.0408.

RRIRERPPRLPRPRPRPLMKPRP: the “shrunken log2 fold change” value is -0.502.

Consider RRIRIRPPRLPRPRPRPMWFPRP, for which the “shrunken log2 fold change” value is -0.0453.

In the case of RRIRTRPPRLPRPRPRPRRAPRP, the “shrunken log2 fold change” value worked out at 0.523.

For RRIRSRPPRLPRPRPRPPWQPRP, the “shrunken log2 fold change” value was 0.449.

Take RRIRMRPPRLPRPRPRPSRAPRP: the “shrunken log2 fold change” value was 1.18.

For RRIRHRPPRLPRPRPRPRREPRP, the “shrunken log2 fold change” value was 0.217.

Take RRIRFRPPRLPRPRPRPTRMPRP: the “shrunken log2 fold change” value is 0.762.

Turning to RRIRDRPPRLPRPRPRPKMLPRP, the “shrunken log2 fold change” value is 0.11.

As to RRIRNRPPRLPRPRPRPGKEPRP, the “shrunken log2 fold change” value was -0.311.

For RRIRVRPPRLPRPRPRPRLGPRP, the “shrunken log2 fold change” value worked out at 0.223.

For the sequence RRIRMRPPRLPRPRPRPWNYPRP, the “shrunken log2 fold change” value is -0.203.

As for RRIRYRPPRLPRPRPRPVYLPRP, the “shrunken log2 fold change” value was determined as 0.00668.

For RRIRHRPPRLPRPRPRPRNDPRP, the “shrunken log2 fold change” value is -0.0937.

In the case of RRIRIRPPRLPRPRPRPDQHPRP, the “shrunken log2 fold change” value was -0.202.

As to RRIRSRPPRLPRPRPRPKGTPRP, the “shrunken log2 fold change” value is -0.237.

For the sequence RRIRLRPPRLPRPRPRPHSRPRP, the “shrunken log2 fold change” value was -0.0563.

As for RRIRIRPPRLPRPRPRPIDLPRP, the “shrunken log2 fold change” value is -0.179.

In the case of RRIRIRPPRLPRPRPRPEKIPRP, the “shrunken log2 fold change” value is -0.0431.

Take RRIRHRPPRLPRPRPRPRYAPRP: the “shrunken log2 fold change” value is -0.0694.

In the case of RRIRHRPPRLPRPRPRPTMKPRP, the “shrunken log2 fold change” value was -0.585.

For RRIRQRPPRLPRPRPRPHMIPRP, the “shrunken log2 fold change” value was -0.515.

On to RRIRCRPPRLPRPRPRPHLKPRP, for which the “shrunken log2 fold change” value is -0.322.

Consider RRIRVRPPRLPRPRPRPKAKPRP, for which the “shrunken log2 fold change” value was determined as 0.0989.

For the sequence RRIRSRPPRLPRPRPRPVEWPRP, the “shrunken log2 fold change” value came out at 0.31.

Consider RRIRARPPRLPRPRPRPGILPRP, for which the “shrunken log2 fold change” value was found to be 0.287.

Consider RRIRARPPRLPRPRPRPPYKPRP, for which the “shrunken log2 fold change” value turned out to be 0.0849.

Take RRIRNRPPRLPRPRPRPMGQPRP: the “shrunken log2 fold change” value came out at 0.128.

As for RRIRDRPPRLPRPRPRPMFGPRP, the “shrunken log2 fold change” value worked out at 0.12.

RRIRQRPPRLPRPRPRPIKRPRP: the “shrunken log2 fold change” value was -0.354.

For the sequence RRIRERPPRLPRPRPRPYDNPRP, the “shrunken log2 fold change” value is 0.033.

RRIRWRPPRLPRPRPRPINFPRP: the “shrunken log2 fold change” value was -0.143.

As to RRIRRRPPRLPRPRPRPNDGPRP, the “shrunken log2 fold change” value turned out to be 0.0979.

For RRIRPRPPRLPRPRPRPEARPRP, the “shrunken log2 fold change” value came to 0.374.

In the case of RRIRDRPPRLPRPRPRPTRLPRP, the “shrunken log2 fold change” value worked out at 0.491.

In the case of RRIRARPPRLPRPRPRPYPLPRP, the “shrunken log2 fold change” value is -0.127.

Consider RRIRKRPPRLPRPRPRPPCTPRP, for which the “shrunken log2 fold change” value stood at 0.193.

Regarding RRIRTRPPRLPRPRPRPMCFPRP, the “shrunken log2 fold change” value was 0.0222.

In the case of RRIRCRPPRLPRPRPRPDWGPRP, the “shrunken log2 fold change” value was -0.134.

RRIRPRPPRLPRPRPRPRNPPRP: the “shrunken log2 fold change” value was 0.405.

On to RRIRWRPPRLPRPRPRPREQPRP, for which the “shrunken log2 fold change” value came to 0.349.

In the case of RRIRDRPPRLPRPRPRPHWSPRP, the “shrunken log2 fold change” value was -0.132.

As to RRIRFRPPRLPRPRPRPVAGPRP, the “shrunken log2 fold change” value is 0.128.

Take RRIRPRPPRLPRPRPRPDVKPRP: the “shrunken log2 fold change” value was -0.137.

For RRIRMRPPRLPRPRPRPMMSPRP, the “shrunken log2 fold change” value was 0.0456.

Regarding RRIRYRPPRLPRPRPRPGPPPRP, the “shrunken log2 fold change” value came out at 0.277.

With RRIRLRPPRLPRPRPRPRISPRP, the “shrunken log2 fold change” value is 0.0807.

For the sequence RRIRMRPPRLPRPRPRPVIPPRP, the “shrunken log2 fold change” value was -0.259.

As to RRIRLRPPRLPRPRPRPYLKPRP, the “shrunken log2 fold change” value was -0.396.

As for RRIRTRPPRLPRPRPRPNYPPRP, the “shrunken log2 fold change” value was -0.0192.

As to RRIRARPPRLPRPRPRPWRWPRP, the “shrunken log2 fold change” value came out at 0.451.
